The text below walks through data of paper PMC11709261.

Common to all, as to assay: two-hybrid; bacterial adenylate cyclase two-hybrid (BACTH) in E. coli BTH101 (cya) or derivatives (ΔdsbA AP58, ΔdjlA AP63, rcsB::tet EAW1, rcsC::tet EAW2, rcsF::cat EAW4); proteins fused at their C-terminus to T18 or T25; some sets with DjlA or DjlA variants co-expressed downstream of IgaA-T18; overnight growth in LB with 0.5 mM IPTG at 30°C; beta-galactosidase (ONPG, OD420 kinetics at 28°C), plotted relative to IgaA/RcsD

Assay [1] has as its target RcsD (E. coli) (UniProt P39838).
UniProt P39838, sequence (P39838 whole entry): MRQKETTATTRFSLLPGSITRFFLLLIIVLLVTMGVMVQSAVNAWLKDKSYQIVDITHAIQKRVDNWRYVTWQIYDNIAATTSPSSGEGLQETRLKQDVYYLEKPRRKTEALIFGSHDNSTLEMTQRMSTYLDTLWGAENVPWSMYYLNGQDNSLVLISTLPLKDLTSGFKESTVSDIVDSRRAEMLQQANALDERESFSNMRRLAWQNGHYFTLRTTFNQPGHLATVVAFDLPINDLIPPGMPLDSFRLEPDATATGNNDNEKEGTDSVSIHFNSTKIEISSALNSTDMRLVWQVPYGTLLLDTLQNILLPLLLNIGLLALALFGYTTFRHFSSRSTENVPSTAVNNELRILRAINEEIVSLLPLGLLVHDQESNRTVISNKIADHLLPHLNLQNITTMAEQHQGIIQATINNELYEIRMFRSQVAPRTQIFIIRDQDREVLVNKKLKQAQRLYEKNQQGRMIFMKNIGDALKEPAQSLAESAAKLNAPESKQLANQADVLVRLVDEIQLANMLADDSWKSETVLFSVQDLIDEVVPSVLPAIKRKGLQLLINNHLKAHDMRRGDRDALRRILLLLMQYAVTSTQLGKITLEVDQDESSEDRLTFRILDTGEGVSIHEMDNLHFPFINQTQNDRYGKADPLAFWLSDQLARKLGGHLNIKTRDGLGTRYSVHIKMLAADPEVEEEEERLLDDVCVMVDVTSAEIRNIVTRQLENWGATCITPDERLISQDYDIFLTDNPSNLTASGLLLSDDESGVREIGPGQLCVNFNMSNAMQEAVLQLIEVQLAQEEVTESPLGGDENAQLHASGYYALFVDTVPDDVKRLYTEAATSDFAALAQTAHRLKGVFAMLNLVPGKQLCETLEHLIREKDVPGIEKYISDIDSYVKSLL
For assay [2] the target is unchanged. This is another data set of the same source.
Assay [3] has the same target. This is another data set of the same source.
The target is the same in assay [4]. This is another data set of the same source.
Assay [5] has the same target. This is another data set of the same source.
The target is the same in assay [6]. This is another data set of the same source.

Read-outs that look alike come from different tables or passages of the source.

IgaA (natural protein): the beta-galactosidase activity (BACTH) (units (1000x the slope of OD420)) is 577 in assay [1]; 545 in assay [2]; 490 in assay [3]; 569 in assay [4]; 578 in assay [5]; 580 in assay [6]. The substance also had a beta-galactosidase activity (BACTH) in assay [2] of 533 units.
